The nature of this data set: soluble on expression in E. coli; label from the status in PepcDB or PDB records.
Take “MGSDKIHHHHHHMKSTGNIIADTICRTAELGLTITGASDAGDYTLIEADALDYTSTCPECSQPGVFRHHTHRMLIDLPIVGFPTKLFIRLPRYRCTNPTCKQKYFQAELSCADHGKKVTHRVTRWILQRLAIDRMSVHATAKALGLGWDLTCQLALDMCRELVYNDPHHLDGVYVIGVDEHKWSHNRAKHGDGFVTVIVDMTGHRYDSRCPARLLDVVPGRSADALRSWLGSRGEQFRNQIRIVSMDGFQGYATASKELIPSARRVMDPFHVVRLAGDKLTACRQRLQREKYQRRGLSQDPLYKNRKTLLTTHKWLSPRQQESLEQLWAYDKDYGALKLAWLAYQAIIDCYQMGNKREAKKKMRTIIDQLRVLKGPNKELAQLGRSLFKRLGDVLAYFDVGVSNGPVEAINGRLEHLRGIALGFRNLNHYILRCLIHSGQLVHKINAL”: the “soluble on expression in E. coli” value is “not soluble”. As for “MSLAAGKHTKHSNRVRIIGGQCRGRKLSFTSADGLRPTPDSVREKLFNWLGQDLTGKTVLDLFGGSGALGIEAASRNAKRVLISDNNRQTVQTLQKNSRELGLGQVQIVFSDGIAYLKTVSEQFDVVFLDPPFAWQDWQILFDALKPCLNPRAFVYLEAGTLPNIPDWLTEYREGKSGQSTFELRVFQVAEEGHHHHHH”, the entry is “soluble”. For “GGVQLNFGGNFTYNKNEILSLGNVDVQKDARTIRMVGKEFNAFYGYKSDGIFQSKEEIANAPKYTMISNDRLIPGDIKLVDINGDGEINPDDKVILSSENPKYTFAFNLGARWKMFDINLFFQGAAGVSRYFTDEFYGEFNGDSGHPSNHWLGRWTPENPTNKWPRASKFRTYNLPETTCSDFWLVNTNYLRLKDIQVGFNVPKEWLQAVRLGSARIYYSGTNLLTFSKTPQGIDPEAPAGWGAYYPHVKTHSIGINITL”, the “soluble on expression in E. coli” value was “not soluble”. Take “MELIRFSISIPSKLLEKFDQIIEEIGYENRSEAIRDLIRDFIIRHEWEVGNEEVAGTITIVYNHDEGDVVKALLDLQHEYLDEIISSLHVHMDEHNCLEVIVVKGEAKKIKMIADKLLSLKGVKHGKLVMTSTGKELV”: the “soluble on expression in E. coli” value is reported as “soluble”.

“MLDKLGGIAVQPEALTWLLTPCRFKAELLTRIENAKTSIYIAALYLEDDEAGREILQVLMTAKANNPALDIKVLVDFHRARRGLIGHKGDSGNYLMYRKVMAEAKHPIEIMGVPVKSREFMGVLHLKGFVIDDAVIYSGASLNNIYLQQNDKYRFDRYHVIESAELARSMRAMIQRYIIADPAVTSLTQDAQQEVLPPKTDVRSFKLRLSQAQYEFNETRSGNRVTPLLGLGRKHNLLNKTVIAMVEESKDRLFICTPYFNPPYILVRALAKHLRKGKRIDIVVGDKTANDFYIPPEQDFSTIGALPYLYEQSLRKFAKRQQWAIDNGQLNIHLWKHGINSYHLKGISTDGRKHLITGSNLNPRAWALDLENGILIHDETGSWKAQFEAEQAHILEHTQRLYHYSQVDTLQSYPDPVKKIMNRIRRLKADFLLRRILLEHHHHHH”: the “soluble on expression in E. coli” value is given as “soluble”. Next, “MAHHHHHHMTFEFGEECNNLARAAHQTKNYGDAISLYDRALTMRREKYGPIHKKCAATLHNIGRVFIDMKEYGAAENAFTEAAAIYEQVEGDKSLEYAESLELLALCYTHLKFLDEAEKAFKDSIRIFRDQCYNYGNNSWLPDDKTPPAEPNKHPLSSAAHALADCAALFLFRRQEHQAVAFLEEALEIRRFLYSRHVKFRPMIAQTLNKLCELKKSLDDAVGAEMCINECLEICIETLGRDHPATAQATSSKAGLLAAKKQFRDALRLYEESTRTYAMALGKDAPLFGQELMKLGRCQELCNDVVNAEKTFRRGVEIITNGFGPNSLQLAEANTFYGSLLARRLDIDQAVGMFRDAIRIRKSVDKHDPQLAYLYQKIGDAYAMRREPHAEAYFLLAVDAFKQNATIEPLQRTYMTDVLDDLGLFYLDFQHYEKAEKCFKEALDTRIEMLGENHATVAYSYSNFALLYLQRQDYANCEKMAEAALDIYSKTARSNVLAQADVHTTLGQCYHQQNQFAKALEMHEKALNVRRTRGDTTETAVAESLNQIARVYITMKRYGKAYRHVKEARRLVWQFNVEITQPLRNEIVKTEQMIPPMEEWTNEERAEAQVMIGDGSSAGNGSAATTATGA”: “not soluble”; “MPGVTVKEIDQHVLTKNMAAFLKKSGKIFVPEQAVYMKTGKFKETAPTDDDWFYTRCASIMRHLYLRSPAGVGAFTKVYSGRKRNGVRPSKHCRSSDGCIRKALQALEAANMVERHPDGGRKLTPQGQRNLDRIANKIVAKQRERSAPVSMIITTLEHHHHHH”: “soluble”; “DERVFEQELENGLRLFIIPKPGFQKTFVTYTTQFGSLDNQFKPLGQDQFVTVPDGVAHFLEHKLFEKEEEDLFTAFAEDNAQANAFTSFDRTSYLFSATDNIENNIKRLLTMVETPYFTKETVDKEKGIIAEEIKMYQEQPGYKLMFNTLRAMYQRHPIRVDIAGSVESIYDITKDDLYLCYETFYHPSNMVLFVVGDVNPEEICRIVKQHEDARNKVNQPKIER”: “not soluble”. Consider “MQQEALSFLSSSLPSLHHNFPSLSRLRFNNFPALSFKPNTSSSSSSFFKSPDIPSLSSTTTTTTTTETLESSIHEKLIYLDSLGIDFLTLINRHPPLLSTALSAVESVVDYMTTPPINFTLQDFRRLVSMCPELLTSPLTSHTIPVITFLLREVGVDSIFDLRQALRRRPRLLACSVDHQLRPTLYFLQRIGILDPHKHTYLLSCSVDNKLVPRIDYFEKLGFSRRSATAMFKRFPQLFNYSIAENYEPKLKYLMVEMGRDVREVLEFPQYFSFSLENRIKPRHEACAAKGVRFPLPVMLKTNEAGFRDTLEVCCDSSPPLKTSRLVTVQKDS”, for which the “soluble on expression in E. coli” value was “not soluble”. For the sequence “MLSKISESLANLSGAERKVAECALAEPKWFVHAAVAEIAERASVSQPTVIRFCRSLGYKGLPEFKLALSASIGHEGMPYVHEELNADDDMASVVEKVLGNAAASL”, the “soluble on expression in E. coli” value is reported as “not soluble”. Next, “AQRDVLAVLPQLNAVQNLAGDAPSWAEGYGLYQGDMLGEESASVYRKLLIAVFAPRLVTRIEEQLRSGGSSDFLYEGLKAYLMLGSPDHYDADFIKAWISLDWERNLPRDLSPEQRQALHAHLDALLERRPPSARLDQDLVEDLRRQLQQLPVAQRVYDRVKRQRLPKDVPDFRISDAAGRDAPLVFARKSGKPLTDPLSGFFTYRGYREVFLTASLSQAGTIAEEQWVLGRDLNDAGDAANLALDVRRLYFQDYLRQWDDLLADLTVVPITNVTQAADVLRILSGPTSPFRKLLEAVARETDLQKGDRLVAAQVKKAADGTVDKLKQRLGSLVGQEEEG”: “not soluble”; “MNVACPALLIAGPASGQGKTTLTAALARHHVRQGRRVRVFKVGPDFLDPMLLQAASGQPVYQLDLWLVGEDQCRSLLFEAARSADLILIEGVMGLFDGTPSAADLAQTFGVPVLAVIDASGMAETFGAVAHGLATHRPGLPFAGVVANRVASPGHADRLRASLPGAIPFRGAFFRQPDAGFPDRHLGLVQAPELGDLDRRLDTLADAVAGTGLADLPDSVPFAPESAAVPPRLLEGVRIGIARDAAFSFLYPANLDLLRAMGATPVFFSPLGDRSLPEVDSVYLPGGYPELHLDTLAGNGGMKESLREHVAAGKPLLAECGGLLYLLEELADQNGRTSAMCGILPGRAKMQTRLAGLGLQSAAFRSGTLRAHTFHYSRLETPLSPLLMAERRRGGSAGEAVYRQGRLTASYLHWYLPSCPEAAAELLRPLEHHHHHH”: “soluble”. As for “PFEGNRVDIYTGGYSKLQALLRELQKARLHIHMEYYIFEDDPVGRLVRDVLIEKAREGVEVRVIYDDVGCWHVPHRFFEEMRDAGIEVRSFLKVRFPLFTSKVNYRNHRKIVVIDGRIGFIGGMNLAERYMRGFSWGIWRDTHILLEGKAVHGLQTAFLLDWYFVDRTLITASRYFPKIEAYGNSLVQIVTSEP”, the entry is “not soluble”; as for “MSTAEFAQLLENSILSPDQNIRLTSETQLKKLSNDNFLQFAGLSSQVLIDENTKLEGRILAALTLKNELVSKDSVKTQQFAQRWITQVSPEAKNQIKTNALTALVSIEPRIANAAAQLIAAIADIELPHGAWPELMKIMVDNTGAEQPENVKRASLLALGYMCESADPQSQALVSSSNNILIAIVQGAQSTETSKAVRLAALNALADSLIFIKNNMEREGERNYLMQVVCEATQAEDIEVQAAAFGCLCKIMSKYYTFMKPYMEQALYALTIATMKSPNDKVASMTVEFWSTICEEEIDIAYELAQFPQSPLQSYNFALSSIKDVVPNLLNLLTRQNEDPEDDDWNVSMSAGACLQLFAQNCGNHILEPVLEFVEQNITADNWRNREAAVMAFGSIMDGPDKVQRTYYVHQALPSILNLMNDQSLQVKETTAWCIGRIADSVAESIDPQQHLPGVVQACLIGLQDHPKVATNCSWTIINLVEQLAEATPSPIYNFYPALVDGLIGAANRIDNEFNARASAFSALTTMVEYATDTVAETSASISTFVMDKLGQTMSVDENQLTLEDAQSLQELQSNILTVLAAVIRKSPSSVEPVADMLMGLFFRLLEKKDSAFIEDDVFYAISALAASLGKGFEKYLETFSPYLLKALNQVDSPVSITAVGFIADISNSLEEDFRRYSDAMMNVLAQMISNPNARRELKPAVLSVFGDIASNIGADFIPYLNDIMALCVAAQNTKPENGTLEALDYQIKVLEAVLDAYVGIVAGLHDKPEALFPYVGTIFQFIAQVAEDPQLYSEDATSRAAVGLIGDIAAMFPDGSIKQFYGQDWVIDYIKRTRSGQLFSQATKDTARWAREQQKRQLSL”, “soluble”. Turning to “MESKIPAIEKHRDAYVKIRIIESLDELALGLKLLKEGFSRNSANKVFQSWKAIISALTVINLEKMPRNEKEKEWYYKSGFLAPTTGLKGISQRLEELGYKVNSLTSVALELHRYAYNGLYKGASDYYEREEAINDIIYLSKEIMKVIKEFFKEYWDEEIEEHYNLAEKELMKLEHHHHHH”, the “soluble on expression in E. coli” value is recorded as “not soluble”. Take “MAEIDYKKVTGMIHSTESFGSVDGPGIRFIIFMQGCKMRCQYCHNPDTWEMETNNSKERTVEDVLKEALRYKHFWGKDGGITVSGGEAMLQIDFITALFIEAKKLGIHTTLDTCGFAYRATPEYHAILEKLLDVTDLVLLDLKEIDSEQHKIVTRQSNKNILQFARYLSDRGTPVWIRHVLVPGLTDIDDHLKRLGEFVQTLDNVDKFEVLPYHTMGEFKWRELGIPYPLAGVKPPTPERVKNAKDIMKTESYTEYLKRIQN”: the “soluble on expression in E. coli” value is reported as “soluble”. Regarding “MGGNMEDVKMKCGLEIHVQIDTKSKLFCNCSTNYLDAEPNTNVCPVCLGLPGAKPLPPNKKAVEVAIMVAKMLGCKIVVDEDIYFQRKHYDYPDLPSGYQRTSTPIGVDGEFMGIGIHEVHLEEDPGQYNPSFGIVDYNRSGTPLIEIVTKPDIKSPEEAREFLKQLMTLFRYLGCLRGEGTMRADVNISIEYMGVQGNRVEVKNVNSIKGVYKVLKYELIRQKNIIKRGGEVKRETRAFLESQMITKAMRSKETAEDYRYIPDPDIQPIVISEKWVKEIEEKMPETPLAKKKRFVEEYGIDEEDAKVLVSDLDMAEMFEEVVKSLGVNKENVDLAVTWIRNELRRSLQYHKVDLYESGVKAEHIVELIKLIKEGVISQKIAKEIVDLLVINRGKKMPKELVEELGLTVIRDEDALVKAVEEAIKNNPKAVEDYLNGKKEALNFLMGQVMRLTRGRADPKRVIELLKERLDK”, the “soluble on expression in E. coli” value was “soluble”.

With “MEERILFSQKTTIFVPVDNDSRIKPMSKDSLCAQHTDCSGCPKAMESTLIHRNLLRGQHIPKDKCTQNCMLFMIEGELLINSDEHPGTTLHEKQFILQAIGSKYEILALTDVSYILFWFNELPLLCENRYREIIDQAEGPLTYTPMVMNPRLFYLINDVAAYLDESTPACGKYIDLKCQEMVYMITNYYPLPQLRAFFYPISTYTESFQYFVMQNYSKAKNVEEFAHLGGYNTTTFRRLFRNLYGVPVYEWMLEKKREGILEDLQHSNMRITEICNRYGFDSLSHLAHFCKDSFGDTPRALRKKAANGEKIGKITD”, the “soluble on expression in E. coli” value is “not soluble”.

Values taken from the DeepSol protein solubility set.
